The text below walks through data of patent US20240158497A1 (published 2024).

T1: Macaca fascicularis GP130 extracellular domain expressed with a C-terminal myc-myc-hexahistidine tag (Macaca fascicularis, UniProt P40189 23-619 (human entry))
T1 construct: Monomeric reagent; also called mfGP130-mmH; mfGP130-MMH
T1 chain: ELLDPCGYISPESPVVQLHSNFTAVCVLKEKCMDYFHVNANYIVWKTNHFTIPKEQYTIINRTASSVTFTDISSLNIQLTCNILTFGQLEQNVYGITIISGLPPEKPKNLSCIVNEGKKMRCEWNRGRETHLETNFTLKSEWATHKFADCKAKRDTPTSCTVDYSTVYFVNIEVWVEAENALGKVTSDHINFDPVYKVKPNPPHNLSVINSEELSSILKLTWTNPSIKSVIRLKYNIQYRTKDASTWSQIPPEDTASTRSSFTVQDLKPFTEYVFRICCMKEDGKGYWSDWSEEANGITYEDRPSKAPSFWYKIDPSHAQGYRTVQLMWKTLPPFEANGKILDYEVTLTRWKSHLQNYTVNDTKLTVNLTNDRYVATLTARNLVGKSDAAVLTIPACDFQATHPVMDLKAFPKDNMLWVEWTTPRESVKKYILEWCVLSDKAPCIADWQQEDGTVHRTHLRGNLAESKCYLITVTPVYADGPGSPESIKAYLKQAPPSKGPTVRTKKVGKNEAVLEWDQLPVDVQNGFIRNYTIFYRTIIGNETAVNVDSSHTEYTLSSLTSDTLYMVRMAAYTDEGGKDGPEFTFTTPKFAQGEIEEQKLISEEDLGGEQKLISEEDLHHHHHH

B1: MAb16664 (antibody, V domains shown)
VH: QVQLVQSGTEVKKPGSSVKVSCKASGGTFSTYPINWVRQAPGQGLEWMGGIIPIFGTASYAQKFQGRVAITTDESTSTAYMELNSLRSEDTAVYYCARERPNWGSNDYWGQGTLVTVSS
VL: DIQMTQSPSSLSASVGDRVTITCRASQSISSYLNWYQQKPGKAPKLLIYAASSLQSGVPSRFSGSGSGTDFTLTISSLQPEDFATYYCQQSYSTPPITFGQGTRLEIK
B2: MAb16637 (antibody, V domains shown)
VH: QVQLVQSGAEVKKPGASVKVSCKASGYTFTSLGISWVRQAPGQGLEWMGWISAYSGNRDYAQKFQGRVTMTTDTSTSTAYMELRSLRSDDTAVYYCARSLRFDYWGQGTLVTVSS
VL: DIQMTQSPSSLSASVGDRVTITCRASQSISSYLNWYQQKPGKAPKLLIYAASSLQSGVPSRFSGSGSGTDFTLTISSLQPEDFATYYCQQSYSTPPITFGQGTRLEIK
B3: MAb16662 (antibody, V domains shown)
VH: EVQLVESGGGLVQPGGSLRLSCTASGFTFSNYAIFWVRQAPGKGLEYVSGISNNGVTKYYADSVRDRFTISRDNSRNTVSIQMDSLRTEDMAVYYCARENWGSDDGFDIWGQGTMVTVSS
VL: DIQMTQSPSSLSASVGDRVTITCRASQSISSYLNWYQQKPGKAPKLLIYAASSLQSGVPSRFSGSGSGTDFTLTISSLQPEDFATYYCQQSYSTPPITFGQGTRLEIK
B4: MAb16636 (antibody, V domains shown)
VH: QLQLQESGPGLVKPSETLSLICTVSGGSISSNNYYWGWIRQPPGKGLEWIGNLYGSGSTYYNPSLKSRVTISVDTSKNQFSLKLSFVTAADTAVYHCARWDTNGGAFDIWGQGTMVTVSS
VL: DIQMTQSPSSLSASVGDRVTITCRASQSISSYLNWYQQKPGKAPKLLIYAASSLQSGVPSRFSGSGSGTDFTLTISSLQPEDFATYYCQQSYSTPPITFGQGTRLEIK
B5: MAb16623 (antibody, V domains shown)
VH: EVQLVESGGGLVQPGGSLRLSCAASGLTFSSYEMNWVRQAPGKGLEWVSHISSAGSTKYYADSVKGRFTISRDNAKNSLFLQMNSLRAEDTAIYYCAGYNYAYYYFGVDVWGQGTTVTVSS
VL: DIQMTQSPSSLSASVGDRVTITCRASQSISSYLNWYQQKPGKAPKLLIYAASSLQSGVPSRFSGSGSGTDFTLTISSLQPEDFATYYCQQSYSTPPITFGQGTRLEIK
B6: MAb16665 (antibody, V domains shown)
VH: QVQLVESGGGVVQPGRSLRLACAASGFTFRSYGMHWVRQAPGKGLEWVAVIWYDGSNKYYTDSVKGRFTISRDNSKNTLYLQMNSLRAEDTAMYYCAIDKWATVTTYLFDYWGQGTLVTVSS
VL: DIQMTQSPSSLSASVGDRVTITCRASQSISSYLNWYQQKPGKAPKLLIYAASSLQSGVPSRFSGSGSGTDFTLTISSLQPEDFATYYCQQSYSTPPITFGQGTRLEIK
B7: MAb16656 (antibody, V domains shown)
VH: EVQLVESGGGLVQPGRSLRLSCAASGFTLDDFAMHWVRQAPGKGLEWVSGISWNSGNIGYADSVKGRFTISRDNARNSLYLQMNSLRAEDTALYYCTSGYYLYYAMDVWGQGTTVTVSS
VL: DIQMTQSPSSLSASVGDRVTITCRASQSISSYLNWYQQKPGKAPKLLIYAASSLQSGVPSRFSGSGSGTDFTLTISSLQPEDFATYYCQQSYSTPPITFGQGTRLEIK
B8: MAb16659 (antibody, V domains shown)
VH: QVQLVQSGPEVKKPGSSVKVSCKASGGTIDRNEITWVRQAPGQGLEWMGVIIPILGEAHYERKFQGRLTITMDESTSTAYMELSNLRSEDTAVYYCARERAARGYLDYWGQGTLVTVSS
VL: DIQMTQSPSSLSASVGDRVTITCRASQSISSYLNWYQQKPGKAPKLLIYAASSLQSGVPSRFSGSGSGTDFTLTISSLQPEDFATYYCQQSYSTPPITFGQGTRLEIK
B9: MAb16666 (antibody, V domains shown)
VH: EVQLVESGGGLVQSGGSLRLSCAASGFTFSRYEMNWVRQAPGKGLEWVAYISNTGTTRDYSDSVKGRFTISRDNAKNSLYLQMSSLRVEDTAVYYCVREKFSGTSDWFDPWGQGTLVTVSS
VL: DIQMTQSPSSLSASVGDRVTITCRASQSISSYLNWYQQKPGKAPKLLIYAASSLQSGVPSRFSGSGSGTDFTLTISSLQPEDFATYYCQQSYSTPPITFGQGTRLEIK

The first assay addresses T2, human GP130 extracellular domain expressed with a C-terminal myc-myc-hexahistidine tag (human, UniProt P40189 23-619).
T2 construct: Monomeric reagent; also called hGP130-mmH; hGP130-MMH
Briefly: SPR (Biacore 4000), mAb captured on anti-human Fc, 37 C. Here is the method: (§1) Equilibrium dissociation constant (KD) for different GP130 reagents binding to purified anti-GP130 monoclonal antibodies were determined using a real-time surface plasmon resonance based Biacore 4000 biosensor. All binding studies were performed in 10 mM HEPES, 150 mM NaCl, 3 mM EDTA, and 0.05% v/v Surfactant Tween-20, pH 7.4 (HBS-ET) running buffer at 25° C. and 37° C. The Biacore sensor surface was first derivatized by amine coupling with a monoclonal mouse anti-human Fc antibody (GE, #BR-1008-39) to capture anti-GP130 monoclonal antibodies. […] Reagents tagged with “mmH” are monomeric, whereas reagents tagged with “mFc” are dimeric. Thus, for example, “hGP130-mmH” is also referred to as “monomeric human GP130,” and “hGP130-mFc” is also referred to as “dimeric human GP130.”
(§2) The association rate (k a) and dissociation rate (kd) were determined by fitting the real-time binding sensorgrams to a 1:1 binding model with mass transport limitation using Scrubber 2.0c curve-fitting software. Binding dissociation equilibrium constant (KD) and dissociative half-life (t ½) were calculated from the kinetic rates as: […]
The term Kd denotes the equilibrium constant for the complex coming apart. A high value points to a looser complex. In general, koff refers to the first-order rate constant of dissociation. As a reminder, the kon is the second-order rate constant of association. A low value points to slow association. Usually t½ stands for the time needed for the level to fall by half in the phase considered. A low value points to fast loss. In the case of B1, the “100 nM Ag Bound” value was 16 RU, the Kd was 14.2 nM, the koff was 0.00826 s⁻¹ and the kon is 580000 M⁻¹ s⁻¹. This molecule gave a t½ of 1.4 min.

Regarding B2, the “100 nM Ag Bound” value was 110 RU, binding was characterised by a dissociation constant (Kd) of 17.3 nM, the koff stood at 0.00342 s⁻¹ and the kon is 197000 M⁻¹ s⁻¹. Also, the t½ was 3 min.

As for B3, the “100 nM Ag Bound” value was determined as 17 RU, the Kd turned out to be 134 nM, the koff amounted to 0.0585 s⁻¹ and the kon came out at 436000 M⁻¹ s⁻¹. This molecule also had a t½ of 0.2 min.

In the case of B4, the “100 nM Ag Bound” value was found to be 50 RU, the Kd is 71.6 nM, the koff is 0.00441 s⁻¹ and the kon was 61600 M⁻¹ s⁻¹. For the same molecule, the t½ was found to be 2.6 min.

For B5, the “100 nM Ag Bound” value was 68 RU, the Kd is 32.2 nM, the koff is 0.0123 s⁻¹ and the kon is 381000 M⁻¹ s⁻¹. The t½ was 0.9 min.

For B6, the “100 nM Ag Bound” value was 19 RU, binding was put at a Kd of 164 nM, the koff is 0.0693 s⁻¹ and the kon worked out at 423000 M⁻¹ s⁻¹. Besides, the t½ turned out to be 0.2 min.

For the molecule B7, the “100 nM Ag Bound” value came out at 50 RU, the Kd was found to be 60.7 nM, the koff amounted to 0.00426 s⁻¹ and the kon amounted to 70100 M⁻¹ s⁻¹. Also, the t½ came out at 2.7 min.

B8: the “100 nM Ag Bound” value stood at 82 RU, binding was put at a Kd of 1.84 nM, the koff is 0.00171 s⁻¹ and the kon was 928000 M⁻¹ s⁻¹. Also, the t½ amounted to 7 min.

On to B9, for which the “100 nM Ag Bound” value turned out to be 104 RU, the Kd came out at 17.1 nM, the koff was determined as 0.0101 s⁻¹ and the kon is 588000 M⁻¹ s⁻¹. This molecule yielded a t½ of 1.1 min.

In the next assay the target is T1, Macaca fascicularis GP130 extracellular …. The description is as above. Here is the method: as §1, §2
As to B1, the “100 nM Ag Bound” value was determined as 16 RU, the Kd amounted to 11.6 nM, the dissociation rate constant (koff) worked out at 0.00788 s⁻¹ and the kon amounted to 680000 M⁻¹ s⁻¹. The t½ was found to be 1.5 min.

B2: the “100 nM Ag Bound” value came out at 104 RU, the Kd was found to be 14.8 nM, the koff came to 0.00263 s⁻¹ and the kon turned out to be 178000 M⁻¹ s⁻¹. This molecule also showed a t½ of 4 min.

For the molecule B3, the “100 nM Ag Bound” value was found to be 14 RU, the Kd was 167 nM, the koff turned out to be 0.0592 s⁻¹ and the kon is 355000 M⁻¹ s⁻¹. This molecule came in with a t½ of 0.2 min.

For B4, the “100 nM Ag Bound” value is 25 RU, binding was characterised by a dissociation constant (Kd) of 239 nM, the koff was determined as 0.00945 s⁻¹ and the kon was 39500 M⁻¹ s⁻¹. Moreover, the t½ was determined as 1.2 min.

In the case of B5, the “100 nM Ag Bound” value turned out to be 60 RU, binding was characterised by a dissociation constant (Kd) of 44.3 nM, the koff stood at 0.0156 s⁻¹ and the kon was 352000 M⁻¹ s⁻¹. This molecule also showed a t½ of 0.7 min.

On to B6, for which the “100 nM Ag Bound” value is 14 RU, binding was characterised by a dissociation constant (Kd) of 205 nM, the koff came out at 0.101 s⁻¹ and the kon came out at 492000 M⁻¹ s⁻¹. This molecule registered a t½ of 0.1 min.

For B7, the “100 nM Ag Bound” value worked out at 47 RU, binding was put at a Kd of 61.3 nM, the koff is 0.00411 s⁻¹ and the kon was 67000 M⁻¹ s⁻¹. The molecule also registered a t½ of 2.8 min.

Turning to B8, the “100 nM Ag Bound” value worked out at 78 RU, the dissociation constant (Kd) came out at 2.34 nM, the koff turned out to be 0.00174 s⁻¹ and the kon stood at 747000 M⁻¹ s⁻¹. Also, the t½ amounted to 7 min.

Regarding B9, the “100 nM Ag Bound” value came out at 90 RU, the Kd worked out at 24.7 nM, the koff was 0.0131 s⁻¹ and the kon was 528000 M⁻¹ s⁻¹. The molecule further returned a t½ of 0.9 min.

For another assay the target is unchanged. The experiment in a line: SPR (Biacore 4000), mAb captured on anti-human Fc, 25 C. Here is the method: as §1, §2
Regarding B1, the “100 nM Ag Bound” value was determined as 13 RU; the affinity, expressed as Kd, was 3.21 nM; the koff was determined as 0.00175 s⁻¹; the kon came to 543000 M⁻¹ s⁻¹. Further, the t½ stood at 7 min.

With B2, the “100 nM Ag Bound” value came out at 87 RU, binding was characterised by a dissociation constant (Kd) of 15.9 nM, the koff was 0.00109 s⁻¹ and the kon came out at 68300 M⁻¹ s⁻¹. Moreover, the t½ came out at 11 min.

For the molecule B3, the “100 nM Ag Bound” value was found to be 15 RU, binding was put at a Kd of 184 nM, the koff was 0.038 s⁻¹ and the kon stood at 207000 M⁻¹ s⁻¹. For the same molecule, the t½ stood at 0.3 min.

On to B4, for which the “100 nM Ag Bound” value was 23 RU, the equilibrium dissociation constant (Kd) amounted to 107 nM, the off-rate constant (koff) was determined as 0.00216 s⁻¹ and the kon was 20100 M⁻¹ s⁻¹. For the same molecule, the t½ worked out at 5 min.

Turning to B5, the “100 nM Ag Bound” value turned out to be 74 RU, the Kd worked out at 25.5 nM, the koff amounted to 0.00476 s⁻¹ and the kon turned out to be 187000 M⁻¹ s⁻¹. The t½ was found to be 2.4 min.

Consider B6, for which the “100 nM Ag Bound” value came out at 16 RU, the Kd worked out at 233 nM, the koff was determined as 0.0505 s⁻¹ and the kon is 217000 M⁻¹ s⁻¹. For the same molecule, the t½ is 0.2 min.

With B7, the “100 nM Ag Bound” value was 42 RU, the Kd was 19 nM, the koff came out at 0.000846 s⁻¹ and the kon came to 44400 M⁻¹ s⁻¹. This molecule returned a t½ of 14 min.

Turning to B8, the “100 nM Ag Bound” value was 74 RU, binding was characterised by a dissociation constant (Kd) of 0.812 nM, the koff was found to be 0.00044 s⁻¹ and the kon came to 542000 M⁻¹ s⁻¹. Further, the t½ stood at 26 min.

With B9, the “100 nM Ag Bound” value came out at 123 RU; the affinity, expressed as Kd, was 18.3 nM; the koff was 0.0053 s⁻¹; the kon came out at 290000 M⁻¹ s⁻¹. This molecule also registered a t½ of 2.2 min.
